Results reported in patent publication US20210047431A1 (DIACCURATE, published 2021).
Where a chain is given by its changes, count along the chain named. Each block holds one binder with its values, some of them ahead of it.

How the values were obtained:
[1] = target: T1, recombinant human sPLA2-GIB (mature secreted form of group IB pancreatic phospholipase A2) (human, UniProt P04054 23-148); test: cell-based or functional assay
[2] = target: T1, recombinant human sPLA2-GIB (mature …); test: indirect ELISA, coated antigen
Protocol: (§1) Microplate wells were typically coated with 100 ng of recombinant human sPLA2-GIB or pro-sPLA2-GIB in PBS pH 7.5, overnight at 4° C. Sample wells were washed three times with PBS containing 0.05% Tween 20. After final washing, sample wells were treated with blocking solution containing 1% bovine serum albumin (BSA) in PBS buffer for 60 min at room temperature. Following washing with PBS containing 0.05% Tween 20, increasing amounts (10 ng/mL up to 3 μg/mL) of mAb directed against human pro-sPLA2-GIB or sPLA2-GIB were added to antigen-coated wells. and incubated for 120 min at room temperature. Following washing with PBS containing 0.05% Tween 20, the binding of mAb was detected with an HRP-conjugated goat anti-mouse IgG or IgA polyclonal antibody reagent and developed using colorimetric substrate. The dependency of the signals on the […] was analyzed with a 4-parameter fit analysis using Prism™ software (Graph Pad) and reported as EC50.

[3] = target: T2, recombinant human pro-sPLA2-GIB (pro form of group IB pancreatic phospholipase A2) (human, UniProt P04054 16-148); test: indirect ELISA, coated antigen
T2 construct: also called pro-sPLA2-IB; proPLA2-GIB
T2 sequence (P04054 16-148): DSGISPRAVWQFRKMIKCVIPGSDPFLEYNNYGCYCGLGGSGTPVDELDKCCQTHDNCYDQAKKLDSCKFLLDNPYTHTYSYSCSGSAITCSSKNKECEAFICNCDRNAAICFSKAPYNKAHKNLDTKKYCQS
Protocol: as §1

[4] = target: T1, recombinant human sPLA2-GIB (mature …); test: competition ELISA on coated sPLA2-IB; competitor biotinylated 14G9
Protocol: (§2) Epitope mapping of the #14G9, #1C11, #8G11 and #7A10 mAbs was evaluated by competition ELISA. Biotinylated mAbs #14G9, #1C11, #8G11 or #7A10 were added to sPLA2-GIB or pro-sPLA2-GIB coated plates in the presence of an excess of un-biotinylated mAb. Bound mAbs were then detected with Streptavidin-HRP conjugate. Results were expressed as percentage of signal, after subtraction of the autologous competition, with 0% representing maximum competition and 100% no competition (Table 4).

[5] = target: T1, recombinant human sPLA2-GIB (mature …); test: competition ELISA on coated sPLA2-IB; competitor biotinylated 7A10
Protocol: as §2

[6] = target: T2, recombinant human pro-sPLA2-GIB (pro …); test: competition ELISA on coated pro-sPLA2-IB; competitor biotinylated 7A10
Protocol: as §2

[7] = target: T2, recombinant human pro-sPLA2-GIB (pro …); test: competition ELISA on coated pro-sPLA2-IB; competitor biotinylated 8G11
Protocol: as §2

[8] = target: T1, recombinant human sPLA2-GIB (mature …); test: SPR (BIAcore 2000), mAb captured on anti-mouse IgG, antigen in solution
Protocol: (§3) The affinity constant (KD) of the pro-sPLA2-GIB and sPLA2-GIB binding to the selected antibodies described above were determined by surface kinetics on a real-time biosensor surface plasmon resonance assay (BIAcore™). More specifically, the affinity of the antibodies for human pro-sPLA2-GIB and sPLA2-GIB was measured using a BIAcore® 2000. The antibody was captured on an anti-mouse IgG surface and exposed to various concentrations of recombinant pro-sPLA2-GIB and sPLA2-GIB protein. Kinetic analysis using BlAevaluation™ software was performed to obtain the association and dissociation rate constants.
as §3, with “constants (Table 3).” for “constants.”

[9] = target: T2, recombinant human pro-sPLA2-GIB (pro …); test: as above
Protocol: as §3
as §3, with “constants (Table 3).” for “constants.”

[10] = target: T1, recombinant human sPLA2-GIB (mature …); test: competitive ELISA: mAb premixed with serial dilutions of soluble antigen, free mAb read on antigen-coated plate
Protocol: (§4) Binding affinities of the antibodies to pro-sPLA2-GIB and sPLA2-GIB were measured by plate-based competition immunoassay. For the competition ELISA, briefly, constant amounts of antibody at different levels were premixed with serial dilutions of antigen protein, human sPLA2-GIB or pro-sPLA2-GIB, ranging from 0 to 10 μg/ml, and incubated for two hours at room temperature to reach pseudo-binding equilibrium between the antibody and antigen. These solutions were then transferred to 96-well sPLA2-GIB or pro-sPLA2-GIB pre-coated plates to allow the free-antibody in the mixtures to bind to plate-coated sPLA2-GIB or pro-sPLA2-GIB. The plates were typically coated with 30 to 100 ng of human sPLA2-GIB or pro-sPLA2-GIB protein in PBS solution overnight at 4° C. followed by BSA nonspecific blocking. After washing off excess antibody in solution, plate-bound antibodies were detected with an HRP-conjugated goat anti-mouse IgG or IgA polyclonal antibody reagent and developed using colorimetric substrate. The dependency of the signals on the concentrations of antigen in solution was analyzed with a 4-parameter fit analysis using Prism™ software (Graph Pad) and reported as IC50.
(§5) The respective binding affinities of the antibodies to human pro-sPLA2-GIB and human sPLA2-GIB were measured by plate-based competition immunoassay. Briefly, constant amounts of antibody at different levels were premixed with serial dilutions of antigen proteins to reach pseudo-binding equilibrium between the antibody and antigen. These solutions were then transferred to antigen pre-coated plates to allow the free-antibody in the mixtures to bind to plate-coated sPLA2-GIB or pro-sPLA2-GIB. Plate-bound antibodies were detected with an HRP-conjugated polyclonal antibody. Data were fitted with a 4PL logistic non-linear regression model and the relative IC50 values were estimated from the model (Table 2).

[11] = target: T2, recombinant human pro-sPLA2-GIB (pro …); test: as above
Protocol: as §4, §5

[12] = target: T1, recombinant human sPLA2-GIB (mature …); test: cell-based or functional assay; remark: listed apart in the source
[13] = target: T1, recombinant human sPLA2-GIB (mature …); test: competition ELISA on coated sPLA2-IB; competitor biotinylated 1C11
Protocol: as §2

[14] = target: T2, recombinant human pro-sPLA2-GIB (pro …); test: competition ELISA on coated pro-sPLA2-IB; competitor biotinylated 1C11
Protocol: as §2

[15] = target: T2, recombinant human pro-sPLA2-GIB (pro …); test: indirect ELISA, coated antigen; indirect ELISA, pro-sPLA2-IB coated on the plate
Protocol: as §1

[16] = target: T2, recombinant human pro-sPLA2-GIB (pro …); test: SPR (BIAcore 2000), mAb captured on anti-mouse IgG, antigen in solution; SPR, mAb captured, pro-sPLA2-GIB in solution
Protocol: as §3
as §3, with “constants (Table 3).” for “constants.”

[17] = target: T2, recombinant human pro-sPLA2-GIB (pro …); test: competitive ELISA: mAb premixed with serial dilutions of soluble antigen, free mAb read on antigen-coated plate; competitive ELISA, soluble pro-sPLA2-IB
Protocol: as §4, with “The plates were typically coated with 30 to 100 ng of human sPLA2-GIB or pro-sPLA2-GIB protein in PBS solution overnight at 4° C. followed by BSA nonspecific blocking.” left out
The respective binding affinities of the antibodies to human pro-sPLA2-GIB and human sPLA2-GIB were measured by plate-based competition immunoassay. […] Plate-bound antibodies were detected with an HRP-conjugated polyclonal antibody. […]

T1 sequence (P04054 23-148): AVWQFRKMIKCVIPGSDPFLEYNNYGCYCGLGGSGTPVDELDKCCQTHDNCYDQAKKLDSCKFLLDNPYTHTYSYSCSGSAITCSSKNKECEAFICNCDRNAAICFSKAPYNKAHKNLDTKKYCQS

B3: #22C6 (antibody, IgG2a, V domains shown)
VH: EVQLQESGPGLVKPSQTVSLNCTVTGHSITDDNYYWSWIRLVSGSKLEWIGYITSAGNTDNNPSLKSRISITRDISKNQFFLHLSSVTAEDTATYYCARDSTDGDFYFEKWGQGTTLTVSS
VL: EIVLTQSPTTMAASPGEKITITCSVSSSISPNFLHWYQQKPGFSPKLLIFRTSNLASGVPTRFSGSGSGTSYSLTIGTMEAEDVATYYCHQGNSLPLTFGAGTKLELKR
Enzymatic Activity Inhibition (% of Control) [1]: 3% | EC50 [2]: 22 nM | EC50 [3]: 117 nM | percentage of signal [4]: 2% | percentage of signal [13]: 56% | percentage of signal [5]: 53% | percentage of signal [14]: 18% | percentage of signal [6]: 141% | percentage of signal [7]: 39%

B4: #24B2 (antibody, IgG2a, V domains shown)
VH: B3 VH with E1D, L4V, A56S, N58S, N61I, S85N
VL: DIVLTQSPASLAVSLGQRATISCRASESVDNYGISFMHWYQQKPGQPPKLLIYRASNLESGIPARFSGSGSRTDFTLTINPVETDDVATYYCQQSSRDLFTFGGGTKLEIKR
Enzymatic Activity Inhibition (% of Control) [1]: 5% | EC50 [2]: 15 nM | EC50 [3]: 81 nM | percentage of signal [4]: 17% | percentage of signal [13]: 61% | percentage of signal [5]: 65% | percentage of signal [14]: 23% | percentage of signal [6]: 135% | percentage of signal [7]: 64%

B5: #7A10 (antibody, IgG1, V domains shown)
VH: QVQLKESGPGLVAPSQSLSITCTVSGFSLTSYGVSWVRQPPGKGLEWLGVIWGDGSTNYHSALISRLSISKDNSKSQVFLKLNSLQTDDTATYYCAKEGGLRRGVYFDYWGQGTTLTVSS
VL: DIQMNQSPSSLSASLGDTITITCRASQGISIWLDWYQQKPGNIPKLLIYKASNLHTGVPPRFSGSGSGTDFTLTISSLQPEDIATYYCLQSQSYPLTFGAGTKLELKR
notes: also called monoclonal antibody 7A10; #7A10 mAb
Enzymatic Activity Inhibition (% of Control) [1]: 51% | EC50 [2]: 77 nM | EC50 [3]: 13 nM | percentage of signal [4]: 58% | percentage of signal [13]: 19% | percentage of signal [14]: 18% | percentage of signal [7]: 93% | Kd [8]: 3.83 nM | koff [8]: 0.000444 s⁻¹ | kon [8]: 118000 M⁻¹ s⁻¹ | t1/2 [8]: 37.5 min | Kd [9]: 3.79 nM | koff [9]: 0.000407 s⁻¹ | kon [9]: 110000 M⁻¹ s⁻¹ | t1/2 [9]: 41 min | IC50 [10]: 5.3 nM | IC50 [11]: 4.3 nM

Now those with a lower EC50 [2], led by results:

Enzymatic Activity Inhibition (% of Control) [1]: 110% | EC50 [2]: 3 nM | EC50 [3]: 4 nM | percentage of signal [4]: 1440% | percentage of signal [5]: 1150% | percentage of signal [6]: 314% | percentage of signal [7]: 496% | Kd [8]: 0.0644 nM | koff [8]: 0.000309 s⁻¹ | kon [8]: 4.79e+06 M⁻¹ s⁻¹ | t1/2 [8]: 53.9 min | Kd [9]: 0.151 nM | koff [9]: 0.000405 s⁻¹ | kon [9]: 2.7e+06 M⁻¹ s⁻¹ | t1/2 [9]: 41.2 min | IC50 [10]: 3.8 nM | IC50 [11]: 2.4 nM
B1: #1C11 (antibody, IgG1, V domains shown)
VH: EVKLQESGPELVKPGASVKISCKVSGYAFSSFWMNWVKQRPGKGLEWIGRIYPGDGDINYNGKFKGKATLTADKSSSTAYMQLSSLTSEDSAVYFCVRGWAWFPYWGQGTLVTVSA
VL: EIVLTQSPAITSASLGQRVTISCSATSSVSYVHWYQQKSGTSPKPWIYEISRLASGVPARFSGSGSGTSYSLTISTMEAEDAAIYYCQSWNFPLLSFGAGTKLELKR
notes: also called monoclonal antibody 1C11; #1C11 mAb

Enzymatic Activity Inhibition (% of Control) [1]: 5% | EC50 [2]: 6 nM | IC50 of inhibition of sPLA2-GIB enzymatic activity (sPLA2 Activity in U/mL against #14G9 mAb in Log M, 4PL fit) [12]: 2.3 nM | percentage of signal [13]: 64% | percentage of signal [5]: 12% | percentage of signal [14]: 69% | percentage of signal [6]: 141% | percentage of signal [7]: 73% | Kd [8]: 0.338 nM | koff [8]: 0.000549 s⁻¹ | kon [8]: 1.63e+06 M⁻¹ s⁻¹ | t1/2 [8]: 30.4 min | EC50 [15]: 158 nM | IC50 [10]: 1 nM | Kd [16]: 174 nM | koff [16]: 0.0506 s⁻¹ | kon [16]: 301000 M⁻¹ s⁻¹ | t1/2 [16]: 0.3 min | IC50 [17]: 109 nM
B2: #14G9 (antibody, IgG1, V domains shown)
VH: QVQLQQPGAELVKPGASVKLSCKASGYTFTNYWIHWVKRRPGQGLEWIGNIDPSDTRTHYNQKFKDKATLAVDKSSSTAYMQLSSLTSEDSAVFYCARQTLYYEALDYWGQGTTLTVSS
VL: DIVMTQSHKLMSTSVGDRVSITCKASQDVSTAVAWYQEKPGQSPKLLIYWASTRHTGVPNRFTGSRSGTDYTLTISSVQAEDLALYYCQQDYSTPPTFGAGTKLELKR
notes: also called monoclonal antibody 14G9; #14G9 mAb
